Positions of bridges follow the written chain, without caps; N, C: chain ends. Non-standard residues stand in square brackets, D forms with d. Primed or numbered codes have the meaning given here. Chains are numbered I, II in the order given. No end group written: not given here. *: point of attachment. Palmitoyl = CCCCCCCCCCCCCCCC(=O)*; Nle = CCCC[C@H](N)C(=O)O; PEG2″ = not defined here
Columns and labels:
[1] = target: T1, human serum albumin (HSA) (human, UniProt P02768 25-609); test: fluorescence polarization
[2] = target: T1, human serum albumin (HSA); test: fluorescence polarization, dilution series of human serum
[3] = target: T2, human Kallikrein-related peptidase 5 (hKLK5) (human, UniProt Q9Y337 67-293, limits assumed); test: activity assay in the presence of 25 µM HSA
T2 construct: Active protease in substrate-based activity assays; also called stratum corneum tryptic enzyme (SCTE)
T2 sequence (Q9Y337 67-293 limits assumed): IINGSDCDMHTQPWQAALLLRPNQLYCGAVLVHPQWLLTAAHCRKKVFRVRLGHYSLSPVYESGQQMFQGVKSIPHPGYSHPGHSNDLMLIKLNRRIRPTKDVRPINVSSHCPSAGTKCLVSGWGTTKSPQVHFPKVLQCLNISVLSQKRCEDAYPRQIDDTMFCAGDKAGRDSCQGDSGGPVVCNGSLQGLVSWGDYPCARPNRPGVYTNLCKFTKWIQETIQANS

FXIIa (Factor XIIa) = target: T3, FXIIa (Factor XIIa) (human, UniProt P00748 373-615, limits assumed); test: substrate-based activity assay
T3 sequence (looked up): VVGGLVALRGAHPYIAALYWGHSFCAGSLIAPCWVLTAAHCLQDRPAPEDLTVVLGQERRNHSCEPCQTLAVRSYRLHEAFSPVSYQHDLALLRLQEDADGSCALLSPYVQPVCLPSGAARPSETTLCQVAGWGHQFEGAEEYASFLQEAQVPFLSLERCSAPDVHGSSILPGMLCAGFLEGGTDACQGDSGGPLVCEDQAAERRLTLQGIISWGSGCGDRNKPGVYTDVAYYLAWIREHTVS

[4] = target: T2, human Kallikrein-related peptidase 5 …; test: substrate-based activity assay
[5] = target: T4, human Kallikrein-related peptidase 7 (hKLK7) (human, UniProt P49862 30-253); test: substrate-based activity assay
T4 construct: Active protease in substrate-based activity assays; also called stratum corneum chymotryptic enzyme (SCCE)
T4 sequence (P49862 30-253 limits assumed): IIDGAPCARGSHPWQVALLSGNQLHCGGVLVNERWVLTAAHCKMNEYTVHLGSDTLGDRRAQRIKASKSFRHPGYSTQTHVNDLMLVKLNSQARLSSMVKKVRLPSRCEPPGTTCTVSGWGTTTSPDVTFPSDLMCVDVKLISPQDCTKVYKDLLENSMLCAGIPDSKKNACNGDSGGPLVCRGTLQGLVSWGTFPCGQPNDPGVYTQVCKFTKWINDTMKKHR

mouse KLK5 (mKLK5) = mouse KLK5 (mKLK5) (mouse); test: substrate-based activity assay, same conditions as for hKLK
mouse KLK7 (mKLK7) = mouse KLK7 (mKLK7) (mouse, UniProt Q91VE3 26-249); test: as above
mouse KLK7 (mKLK7), sequence (Q91VE3 26-249 limits assumed): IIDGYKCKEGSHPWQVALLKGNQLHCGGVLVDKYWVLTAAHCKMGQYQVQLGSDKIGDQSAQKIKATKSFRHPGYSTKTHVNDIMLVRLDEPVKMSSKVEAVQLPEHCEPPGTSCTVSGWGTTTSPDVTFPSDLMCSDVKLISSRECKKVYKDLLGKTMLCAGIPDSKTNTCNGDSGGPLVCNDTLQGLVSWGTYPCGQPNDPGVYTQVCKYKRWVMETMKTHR

[6] = target: T4, human Kallikrein-related peptidase 7 …; test: activity assay in the presence of 25 µM HSA
[7] = target: T5, mouse serum albumin (MSA) (mouse, UniProt P07724 25-608); test: fluorescence polarization, dilution series of mouse albumin in PBS
T5 construct: also called mouse albumin
T5 sequence (P07724 25-608 limits assumed): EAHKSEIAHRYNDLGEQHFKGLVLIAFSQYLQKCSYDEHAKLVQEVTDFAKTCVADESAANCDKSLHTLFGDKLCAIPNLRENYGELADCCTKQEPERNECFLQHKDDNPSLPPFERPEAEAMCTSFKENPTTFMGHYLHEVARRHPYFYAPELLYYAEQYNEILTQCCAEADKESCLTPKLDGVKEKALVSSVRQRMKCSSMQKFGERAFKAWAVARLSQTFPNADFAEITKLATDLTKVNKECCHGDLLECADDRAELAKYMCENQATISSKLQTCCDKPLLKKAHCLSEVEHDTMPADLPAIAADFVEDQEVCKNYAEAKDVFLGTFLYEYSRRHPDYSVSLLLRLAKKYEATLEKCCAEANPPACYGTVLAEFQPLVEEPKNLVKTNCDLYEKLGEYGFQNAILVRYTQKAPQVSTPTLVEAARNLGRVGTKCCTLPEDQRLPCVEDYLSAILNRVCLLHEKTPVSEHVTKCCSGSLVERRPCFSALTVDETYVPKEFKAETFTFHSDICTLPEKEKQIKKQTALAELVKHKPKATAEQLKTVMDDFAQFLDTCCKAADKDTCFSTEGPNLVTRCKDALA

B1: peptide 282 (albumin tag variant, biphenyl-3-carboxylic acid) (peptide)
peptide: EYEKEYEK
modifications: not fully specified; N-terminal cap based on peptide 266 with biphenyl-3-carboxylic acid; Lys 4 side chain acylated with palmitic acid; 5(6)-FAM on the side chain of the additional C-terminal Lys
Kd [1]: 132 nM

B2: N-terminal albumin tag conjugate of KLK5 inhibitor 035 (peptide)
peptide 1: GCTRQYPC
peptide 2: {5(6)‑carboxyfluorescein}-EYEK(Palmitoyl)EYE
modifications: bridge I:2-I:8; not fully specified (C-terminus, bridges); also: chain 2 C-terminus joined via PEG2 to chain 1 N-terminus, linker to a chain's N/C-terminus via PEG2
binding result [2]: binds
Ki [3]: 23 nM
fold loss in activity against the cyclic peptide alone [3]: 10 fold

B3: peptide 035 (lead KLK5 inhibitor) (peptide)
peptide: GCTRQYPC
modifications: linker 2-8 via 1,3‑dibromoacetone
Ki (FXIIa (Factor XIIa)): 40000 nM
Ki [4]: 2.2 nM

B4: peptide 284 (albumin tag variant, 2-naphthalenecarboxylic acid) (peptide)
peptide: EYEKEYEK
modifications: not fully specified; N-terminal cap based on peptide 266 with 2-naphthalenecarboxylic acid; Lys 4 side chain acylated with palmitic acid; 5(6)-FAM on the side chain of the additional C-terminal Lys
Kd [1]: 147 nM

B5: peptide 096 (lead KLK7 inhibitor) (peptide)
peptide: PCLYLARCS
modifications: bridge 2-8; not fully specified (bridges)
Ki [5]: 16 nM

B6: peptide 114 with norleucine in position five (peptide)
peptide: PCLY[Nle]ARC
modifications: linker 2-8 via 1,3‑dibromoacetone
notes: No peptide number is printed for the untagged norleucine derivative
Ki [5]: 7 nM

B7: KLK5 inhibitor 035-tag (C-terminal albumin tag conjugate of 035) (peptide)
peptide 1: GCTRQYPCGKG
peptide 2: EYEK(Palmitoyl)EYE
modifications: bridge I:2-I:8; not fully specified (N-terminus, bridges); also: N-terminal fluorescein via PEG2, chain not given here, chain 2 tag joined via PEG2 to Lys10 side chain of chain 1
IC50 (mouse KLK5 (mKLK5)): 2 nM
Kd [2]: 119 nM
Ki [3]: 1.2 nM

B8: KLK7 inhibitor 096-tag (C-terminal albumin tag conjugate of 096) (peptide)
peptide 1: PCLYLARCSGKG
peptide 2: EYEK(Palmitoyl)EYE
modifications: bridge I:2-I:8; not fully specified (N-terminus, bridges); also: N-terminal fluorescein via PEG2, chain not given here, chain 2 tag joined via PEG2 to Lys11 side chain of chain 1
IC50 (mouse KLK7 (mKLK7)): 20 nM
Kd [2]: 164 nM
Ki [6]: 32 nM

B9: albumin tag (F-tag) (peptide)
peptide: {fluorescein-PEG2″}-EYEK(Palmitoyl)EYE
notes: also called fluorescein-tag
Kd [7]: 4200 nM
